Experimental data from patent US9872921B2, “DE-N-acetyl sialic acid antigens, antibodies thereto, and methods of use in cancer therapy” (priority 2004, dated 2018).

Tests used:
[1] = HPTLC / Western blot reactivity with gangliosides extracted from SK-MEL-28 cells grown with N-trichloroacetyl mannosamine; format: binding, human; settings: mAbs 5 μg/ml; lanes 2 and 5
Experimental: SK-Mel-28 cells were grown on square 245 mm×245 mm bioassay dish (Corning) until near confluent. Growth medium (RPMI supplemented with 5 mM glutamine, 1 mM sodium pyruvate, 0.1 mM non-essential amino acids, 10% fetal bovine serum, and antibiotics) was replaced with growth medium containing trichloroacetyl mannosamine (5 mM) for 24 hours, after which cells were washed three times with PBS and lysed by hypotonic shock in distilled water (1 hour at 4° C.). This was followed by 3 cycles of freeze/thawing using ethanol on dry ice/37° C. water bath. The crude membrane fraction was pelleted by centrifugation at 4500 g for 20 minutes at 4° C. The pellet was lyophilized and the lipids extracted by stepwise washing with methanol/chloroform (1:2, 1:1, 2:1 by volume) for 30 minutes (Geilen et al 1992, Arch. Biochem. Biophys. 296, 108-114). The organic phase was dried under a steady stream of oxygen-free nitrogen gas and resuspended in 200 μl of chloroform/methanol/0.02% CaCl2 (50:40:10).
Lipids in the extract and in chemically de-N-acylated GD3 were analyzed by separation on high performance thin layer chromatography (HPTLC) and Western blot. […]

normal melanocytes = test: Immunostaining of frozen sections of normal human skin; settings: frozen unfixed sections, 400× magnification
Experimental: (§1) To determine whether there is a difference in expression of SEAM 3-reactive antigen between normal melanocytes and melanoma tumor cells, immuno-staining of thin sections of each type of tissue were performed. In addition to SEAM 3, controls included the secondary antibody alone and R24, which binds to the ganglioside GD3 that is expressed in normal melanocytes and is overexpressed in some melanomas (Dippold et al. Proc Natl Acad Sci USA, 1980. 77(10): 6114-8.; Graus, et al., Brain Res, 1984. 324(1): 190-4; Houghton et al. Proc Natl Acad Sci USA, 1985. 82(4):1242-6; Panneerselvam et al. J Immunol, 1986. 136(7): 2534-41; Real et al. Cancer Res, 1985. 45(9): 4401-11; Vadhan-Raj et al. J Clin Oncol, 1988. 6(10): 1636-48; Welt t al. Clin Immunol Immunopathol, 1987. 45(2): 214-29).
(§2) The tissue sections were made from frozen samples of normal skin (HuSkinTb111 in FIG. 39) and two human melanomas (HuMel1151 and HuMel4034). To prevent the possibility of blocking de-N-acetyl antigen or extracting a lipid containing the antigen, the sections were prepared from frozen tissue and were dried onto the slides but not fixed with aldehydes or organic solvents (Chammas et al. Cancer Res, 1999. 59(6): 1337-46). […] Bound antibody was then detected using the DAKO LSAB kit following the manufacturer's directions (Thermo Fisher Scientific, Waltham, Mass.). […]

human melanomas = test: Immunostaining of frozen sections of human melanomas; settings: frozen unfixed sections, 400× magnification
Experimental: as §1, §2

SK-MEL 28 cells [2] = test: Cell viability by ViaCount Reagent flow cytometry; format: cell-based, human
Experimental: Cell viability of SK-MEL 28 cells incubated in the presence of SEAM 3 or control mAbs (irrelevant isotype IgG2b or anti-GD3, R24) was determined using ViaCount Reagent (Guava Technologies, Hayward, Calif.), as per manufacturers instructions. […] The viability was analysed using a pre-set program on the Guava EasyCyte flowcytometer. The program has a preset gate for apoptosis and this was routinely incorporated into our studies.

SK-MEL 28 cells [3] = test: Flow cytometry double labeling of SEAM 3 binding and Ki-67 antigen; format: cell-based, human
Experimental: Cells were processed by the same procedures used to measure SEAM 3 binding in the absence of Triton. After unbound SEAM 3 had been washed away, cells were treated with 3% (v/v) goat serum containing 0.5% Triton to allow entry of an anti-Ki-67 antibody. After 1 h at 4° C., an anti-Ki-67 was added and incubated on-ice for 2 hours. Cells were then collected by centrifugation, washed twice with PBS, and two fluorescently labeled goat anti-mouse secondary antibodies were added, anti IgG2b-Alexa Flour 594 (Invitrogen); anti-IgM-Alexa Flour 488 (Invitrogen). After extensive washing, cells were analyzed on a Guava EasyCyte flow cytometer.

[4] = tested on: Jurkat cells (acute lymphoblastic T-cell leukemia); settings: approximately proportional to level of antigen on cell surface

B1: SEAM 3: murine anti-N-Pr NmB polysaccharide monoclonal antibody (IgG2b), ATCC Deposit No. HB-12170 (antibody, V domains shown)
VH: EVKLQESGGGLVQPGDSLSLSCAASGFTFTPYYMGWVRQPPGKALEWLGYIRNKANGYTTEYSASVKGRFTISRDNSQSILYLQMNALRAEDSATYYCARYARGTVDSWGQGTTLTVS
VL: DIVMTQSPLTLSVTIGQPASISCKSSQSLLHSNGKTYLNWLLQRPGQSPKLLIYLVSKLESGVPDRFSGSGSGTDFTLKISRVEAEDLGLYYCLQIIHFPHTFGAGTKLELKRA
modifications: mouse
In the case of B1, the “reactivity with SK-MEL-28 lipid extract treated with NaBH4 (protecting group removed)” value [1] is reported as “reacts with a different slower moving de-N-acetyl ganglioside derivative”, the “immunostaining of normal human skin” value (normal melanocytes) is reported as “binds to an antigen in neural like structures of the dermis but is not present in melanocytes” and the “immunostaining of two human melanomas” value (human melanomas) is reported as “staining is weaker but nearly all of the melanoma cells are stained”. For the same molecule, the “number of viable cells compared to irrelevant IgG2b control mAb” value (SK-MEL 28 cells [2]; 5 μg/ml, 24 h incubation) was “significantly decreases the number of viable cells”, the “number of apoptotic cells compared to IgG2b control mAb” value (SK-MEL 28 cells [2]; 5 μg/ml, 48 h) was “increases the number of apoptotic” and the “number of dead cells compared to IgG2b control mAb” value (SK-MEL 28 cells [2]; 5 μg/ml, 48 h) was “increases”. For the same molecule, the “number of viable cells compared to IgG2b control mAb” value (SK-MEL 28 cells [2]; 5 μg/ml, 48 h) was “decreases the number of viable cells”, the cytotoxic effect (SK-MEL 28 cells [2]; SK-MEL-28 melanoma, approximately proportional to level of antigen on cell surface) was “cytotoxic effect of SEAM 3 was observed” and the “cells expressing SEAM 3-reactive antigen on their surface” value (SK-MEL 28 cells [3]; cells in exponential growth phase, flow cytometry and fluorescence microscopy) was “approximately 20%”. For the same molecule, the “cells expressing both Ki-67 and SEAM 3-reactive antigen on their surface” value (SK-MEL 28 cells [3]; double labeling) was “approximately 11%”, the “cells that only express SEAM 3-reactive antigen” value (SK-MEL 28 cells [3]; double labeling) was 13% and the cytotoxic effect [4] was “cytotoxic effect of SEAM 3 was observed”.
